The experiment concerns the target recombinant full-length H7 hemagglutinin of A/Anhui/1/2013 (H7N9) influenza virus (influenza A virus A/Anhui/1/2013 (H7N9)). The experiment can be described thus: […]; 500 ug/ml in PBS, […].

“And” between values parts separate entries of the source, which are not always exact repeats. Identical values can stand only once.

As to “recombinant full-length H7 hemagglutinin of A/Anhui/1/2013 (H7N9) influenza virus (natural protein)”, the stoichiometry N (units (HA molecules per complex)) was 6 and 7 and 8.

(Values after PMC4895014.)
